# Measurements: article PMC4288183
# Assays:
# [1] = target: T1, MNV RdRp (NS7) WT (Murine norovirus 1 strain CW1) (UniProt Q80J95); assay: fluorescence polarization competition; conditions: FP: 10 mM Tris-HCl pH 8.0, 30 mM NaCl, 1% glycerol, 0.5 mM 2-mercaptoethanol, 0.1 uM fMps, temperature not stated; synthesis competition: 20 mM Na glutamate pH …
# T1 sequence: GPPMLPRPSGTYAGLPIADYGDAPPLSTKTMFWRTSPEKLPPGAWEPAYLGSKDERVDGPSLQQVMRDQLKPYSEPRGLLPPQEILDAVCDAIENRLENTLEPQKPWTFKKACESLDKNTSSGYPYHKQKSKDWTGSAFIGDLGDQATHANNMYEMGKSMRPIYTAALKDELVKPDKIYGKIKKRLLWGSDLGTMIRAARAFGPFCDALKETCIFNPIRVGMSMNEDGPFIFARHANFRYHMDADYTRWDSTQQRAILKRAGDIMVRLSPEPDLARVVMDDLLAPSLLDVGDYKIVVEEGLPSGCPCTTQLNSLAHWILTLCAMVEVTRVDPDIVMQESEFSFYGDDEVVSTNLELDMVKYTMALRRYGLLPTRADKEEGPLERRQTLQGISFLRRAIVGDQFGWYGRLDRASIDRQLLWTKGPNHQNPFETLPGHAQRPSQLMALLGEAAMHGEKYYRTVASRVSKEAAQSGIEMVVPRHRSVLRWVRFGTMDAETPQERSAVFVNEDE
# [2] = target: T1, MNV RdRp (NS7) WT (Murine norovirus 1 strain CW1); assay: fluorescence polarization; conditions: FP: 10 mM Tris-HCl pH 8.0, 30 mM NaCl, 1% glycerol, 0.5 mM 2-mercaptoethanol, 0.1 uM fMps, temperature not stated; synthesis competition: 20 mM Na glutamate pH …
Sequence,IC50 [1],Ki [1],Kd [2]
GCGUCAUUCACAAAGACUGCUGAGCGUUCCUGCGGGGUCUCAGCAUCCAUU [Mps (MNV subgenomic proscript)],2360 nM,680 nM,–
CUGCUGAGCGUUCCUGCGGGGUCUCAGCAU [Mhp (hairpin of Mps; also printed Mph)],16200 nM,6300 nM,–
GCGUCAUUCACAAAGACUGCUGAGCGUUCCUGCGGGGUCUCAGCAUCCAUU [fMps (6-FAM MNV subgenomic proscript)],–,–,500 nM
